Holding throughout (assay): flow, Jurkat, 100 nM Ab
The target of test [1] is T1, Human Clec12B (human, UniProt Q2HXU8 1-276).
T1 construct: also called hClec12B
T1 sequence: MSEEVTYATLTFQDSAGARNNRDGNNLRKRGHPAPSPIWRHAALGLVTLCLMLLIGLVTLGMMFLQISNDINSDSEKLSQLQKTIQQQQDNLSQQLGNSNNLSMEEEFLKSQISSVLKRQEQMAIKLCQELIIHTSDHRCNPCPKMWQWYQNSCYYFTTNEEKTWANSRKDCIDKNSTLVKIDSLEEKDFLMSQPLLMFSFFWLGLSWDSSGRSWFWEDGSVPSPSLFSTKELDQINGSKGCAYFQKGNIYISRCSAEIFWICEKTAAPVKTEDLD

The target in test [2] is T2, Human KLRG1 (human, UniProt Q96E93 1-195).
T2 construct: also called hKLRG1
T2 sequence: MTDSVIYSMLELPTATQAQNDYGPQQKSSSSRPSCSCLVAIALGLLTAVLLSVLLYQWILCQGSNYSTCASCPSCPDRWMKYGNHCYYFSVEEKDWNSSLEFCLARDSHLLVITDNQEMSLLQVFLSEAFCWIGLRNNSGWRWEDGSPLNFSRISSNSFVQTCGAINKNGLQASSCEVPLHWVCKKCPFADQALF

The target of test [3] is T3, Human CD94 (human, UniProt Q13241 1-179).
T3 construct: also called hCD94
T3 sequence: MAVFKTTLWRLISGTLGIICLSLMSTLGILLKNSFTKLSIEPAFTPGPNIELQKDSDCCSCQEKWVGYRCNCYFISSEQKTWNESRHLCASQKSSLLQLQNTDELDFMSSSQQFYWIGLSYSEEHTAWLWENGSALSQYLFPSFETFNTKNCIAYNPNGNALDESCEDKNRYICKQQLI

Test [4] concerns the target T4, Human Clec9A (human, UniProt Q6UXN8 1-241).
T4 construct: also called hClec9A

Test [5] concerns the target T5, Human KLRF2 (human, UniProt D3W0D1 1-207).
T5 construct: also called hKLRF2
T5 sequence: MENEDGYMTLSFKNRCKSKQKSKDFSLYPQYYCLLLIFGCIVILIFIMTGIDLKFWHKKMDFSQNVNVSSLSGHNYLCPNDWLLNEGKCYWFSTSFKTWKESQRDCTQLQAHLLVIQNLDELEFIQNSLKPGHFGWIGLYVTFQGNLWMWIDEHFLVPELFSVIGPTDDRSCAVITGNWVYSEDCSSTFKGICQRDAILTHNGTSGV

The target of test [6] is T6, human CD161 (human, UniProt Q12918 1-225).
T6 construct: UniProt Q12918; also called hCD161; KLRB1

In test [7] the target is T7, Human Clec4E (human, UniProt Q9ULY5 1-219).
T7 construct: also called hClec4E
T7 sequence: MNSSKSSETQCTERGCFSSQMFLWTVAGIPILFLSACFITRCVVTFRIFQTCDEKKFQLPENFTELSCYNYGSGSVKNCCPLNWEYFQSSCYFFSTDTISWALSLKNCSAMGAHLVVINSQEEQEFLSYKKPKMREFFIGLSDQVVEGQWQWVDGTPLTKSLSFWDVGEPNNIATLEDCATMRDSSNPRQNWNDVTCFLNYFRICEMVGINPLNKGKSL

Test [8] has as its target T8, Human Clec10A (human, UniProt Q8IUN9 1-316).
T8 construct: also called hClec10A
T8 sequence: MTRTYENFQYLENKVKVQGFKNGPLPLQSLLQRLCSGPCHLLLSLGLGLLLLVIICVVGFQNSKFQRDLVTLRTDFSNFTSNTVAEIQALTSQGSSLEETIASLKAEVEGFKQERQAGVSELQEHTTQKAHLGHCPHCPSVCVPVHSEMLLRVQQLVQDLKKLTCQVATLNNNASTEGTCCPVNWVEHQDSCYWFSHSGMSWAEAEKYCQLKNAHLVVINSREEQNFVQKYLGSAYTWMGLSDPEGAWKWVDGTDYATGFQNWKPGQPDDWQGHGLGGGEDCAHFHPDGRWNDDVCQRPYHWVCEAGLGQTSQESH

T4 sequence (Q6UXN8 whole entry): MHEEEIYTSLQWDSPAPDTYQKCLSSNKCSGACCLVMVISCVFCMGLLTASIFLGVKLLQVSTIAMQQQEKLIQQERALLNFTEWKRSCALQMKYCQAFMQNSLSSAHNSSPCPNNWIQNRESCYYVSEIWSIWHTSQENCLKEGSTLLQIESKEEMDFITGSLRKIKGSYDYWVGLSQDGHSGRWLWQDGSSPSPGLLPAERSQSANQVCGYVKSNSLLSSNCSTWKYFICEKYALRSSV

B1: anti-CD161 KW17 (antibody, V domains shown)
VH: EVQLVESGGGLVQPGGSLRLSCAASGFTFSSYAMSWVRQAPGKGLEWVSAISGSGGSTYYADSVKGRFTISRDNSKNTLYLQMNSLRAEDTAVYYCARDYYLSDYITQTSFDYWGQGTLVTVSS
VL: QSVLTQPPSVSGAPGQRVTISCTGSSSNIGAGYDVHWYQQLPGTAPKLLIYGNSNRPSGVPDRFSGSKSGTSASLAITGLQAEDEADYYCQSYDSSHTVFGGGTQLTVL
notes: Human, lambda light chain; scFv-Fc or full IgG not clear; also called KW17-Fc
As for B1, the “MFI normalized to WT” value stood at 1.04 in test [1]; 1.05 in test [2]; 0.95 in test [3]; 1.07 in test [4]; 1.01 in test [5]; 53.9 in test [6]. Further, the “MFI normalized to WT” value was determined as 0.94 in test [7] and 0.96 in test [8].

The values are drawn from US20210122826A1 (MIT, published 2021).
